Ends that are not written are not given here.
Experiments:
[1] = biological target: T1, GST-β3cyto (GST fusion protein of the β3 integrin cytoplasmic domain) (UniProt P05106 742-788); assay: phosphorylated phage binding, β3 colonies / GST colonies
T1 construct: domain: cytoplasmic domain; Recombinant GST fusion coated on microtiter wells; also called β3-GST; β3 cytoplasmic domain fusion protein; not shown: glutathione S-transferase (GST) fusion partner
Procedure: (§1) Phosphorylation of peptide libraries with src family protein kinases (Fyn, c-Src, Lyn, and Syc) and serine/threonine kinases such as a MAP kinase were performed as described previously (Schmitz et al., 1996; Dente et al., 1997; Gram et al., 1997). Briefly, phage particles were collected from culture supernatants by double precipitation with 20% polyethylene glycol 8000 in 2.5 M NaCl. Particles were dissolved at 10¹² particles/ml. Purified phage (10 μl) were incubated for 3 hours at room temperature with different concentrations (35 to 3,500 units) of protein kinases in a reaction buffer volume of 50 μl. The reaction mixtures were transferred to tubes containing 10 μg of agarose-conjugated anti-P-Tyr, anti-P-Ser, or anti-P-Thr monoclonal antibodies to select phage displaying phosphorylated peptides. Bound phage were eluted by washing the column with 0.3 ml of elution buffer (0.1 M NaCl/glycine/1 mg/ml BSA, pH 2.35). The eluates were neutralized with 2 M Tris-base and incubated with 2 ml of a mid-log bacteria culture.
(§2) Amino acid sequences of the phagemid encoded peptides were deduced from nucleotide sequences.

[2] = biological target: T1, GST-β3cyto (GST fusion protein of the …); assay: phosphorylated phage binding, β3 colonies / BSA colonies
Procedure: as §1, §2

[3] = biological target: T1, GST-β3cyto (GST fusion protein of the …); assay: phage binding to β3, colonies with Fyn-phosphorylated phage / unphosphorylated phage
Procedure: as §1, §2

T1 sequence (P05106 742-788): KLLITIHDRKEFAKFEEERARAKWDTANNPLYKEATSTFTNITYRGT

## RAILYRLAN (not fully specified (residue 5); also: displayed on phage, whole phage tested) [Fyn-phosphorylated phage displaying RAILYRLAN (SEQ ID NO:116)]
[1]
  β3 or β5/GST: 1.3 ratio
[2]
  β3 or β5/BSA: 20 ratio
[3]
  Phos/Unphos: 2.8 ratio

Source: patent US20040170955A1 (University of Texas, published 2004)
